Experimental findings from patent publication US20170137511A1 (CALYPSO BIOTECH, published 2017) are described below.

Broadly, the EC50 is the concentration needed to bring the measured effect to its halfway point. As a reminder, the Kd is the concentration at which binding is half-saturated. For orientation: koff means the rate constant with which the complex falls apart. What is called kon is the rate constant with which the complex forms.

The target in assay [1] is T1, human IL-15 (preparation not stated) (human, UniProt P40933 49-162, limits assumed).
T1 construct: also called recombinant IL-15; recombinant human IL-15
Nature of the assay: ELISA screen of hybridoma supernatants.

Assay [2] concerns the target T1, human IL-15 (preparation not stated). Nature of the assay: cell-based or functional assay.
Assay [3] has as its target T2, recombinant Macaque Monkey IL-15 (MyBiosource cat. no. MBS948894) (Rhesus macaque / Cynomolgus monkey, UniProt P40221 49-162 (Chlorocebus aethiops entry)). Nature of the assay: cell-based or functional assay.
The target in assay [4] is T3, recombinant human IL-15 (R&D systems cat. no. 247-IL) (human, UniProt P40933 49-162). Nature of the assay: cell-based or functional assay.
Assay [5] concerns the target T3, recombinant human IL-15 (R&D systems …). Nature of the assay: cell-based or functional assay. This is another data set of the same source.
The target in assay [6] is T4, recombinant human IL-15 (Prospec cat no. CYT230) (human, UniProt P40933 49-162). Nature of the assay: ELISA, plate-bound human IL-15; printed as BC50 (half-maximal binding concentration).
The target of assay [7] is T2, recombinant Macaque Monkey IL-15 …. Nature of the assay: ELISA, plate-bound Macaque Monkey IL-15; printed as BC50 (half-maximal binding concentration). In general terms: In an ELISA, binding on a coated surface is turned into a signal by an enzyme label.
Assay [8] deals with T4, recombinant human IL-15 (Prospec cat …). Nature of the assay: SPR (Biacore 3000), human IL-15 amine-coupled to the chip, antibody injected, 1:1 Langmuir fit. The protocol:
Human IL-15 (Prospec cat no. CYT230) was immobilized onto a CMS chip (GE Healthcare) using standard amine coupling, and antibodies injected at various concentrations in 120 μl phosphate buffer saline with a flow rate of […]. Binding kinetics were analyzed on a Biacore 3000 apparatus (GE Healthcare) with a 300 seconds dissociation period. Reference signal and 0 nM antibody concentration signal were substracted and data fitted using a 1:1 (Langmuir) binding model.
In general terms: In SPR one partner is held on a chip, and binding of the other changes the refractive index at the surface.

In assay [9] the target is T5, recombinant rat IL-15 (Sigma cat. no. SRP4172) (rat, UniProt P97604 49-162).
T5 sequence: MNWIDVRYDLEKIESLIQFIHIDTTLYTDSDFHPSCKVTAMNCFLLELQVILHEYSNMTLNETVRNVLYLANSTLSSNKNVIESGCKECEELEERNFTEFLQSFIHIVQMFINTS
Nature of the assay: ELISA, plate-bound recombinant rat IL-15 (100 ng/well), HRP goat anti-human IgG, absorbance at 450 nm. The protocol:
(§1) Maxisorp plates were coated with recombinant mouse IL-15 (R&D Systems cat. no. 447-ML) or rat IL-15 (Sigma cat. no. SRP4172) at 100 ng/well in carbonate coating buffer for 2 hours at 37° C. Tested IL-15 recombinant proteins have a sequence identical to that provided in SEQ ID NO: 2 (mouse IL-15) and SEQ ID NO: 3 (rat IL-15) but with an additional methionine at the N-terminal position as usually done for expressing recombinant proteins in E. Coli.
(§2) The plate was then blocked with 2% normal goat serum for 30 min at 37° C. and washed 6 times with PBS-Tween (0.05% Tween-20 in PBS, v/v). Test antibodies were added to the plate in triplicate at various dilutions in PBS-Tween and the plate was incubated with gentle rocking at room temperature for 2 hours. As positive controls, rabbit-anti-mouse IL-15 (Acris cat. no. AP01124PU-S) or rabbit anti-rat IL-15 (Biovision cat. no. 5172) antibodies were tested at the same concentrations. The plate was then washed 6 times with PBS-Tween and an appropriate dilution of HRP-conjugated goat anti-human IgG antibody (Millipore cat. no. AP309P) for humanized antibodies, or goat-anti-rabbit IgG antibody (Sigma cat. no. A 4416) for the positive controls was added and the plate was left rocking at room temperature for 1 hour. The plate was then washed 6 times with PBS-Tween and incubated with TMB substrate. The reaction was stopped by the addition of 1M H₂SO₄ and read at 450 nm. Dose response curves of absorbance versus concentration were plotted using the Graphpad Prism software.

The target in assay [10] is recombinant human IL-2 (R&D Systems cat. no. 202-IL-010) (human, UniProt P60568 21-153). Nature of the assay: ELISA, plate-bound recombinant human IL-2 (100 ng/well), HRP goat anti-human IgG, absorbance at 450 nm. The protocol: Maxisorp plates were coated with recombinant human IL-2 (R&D Systems cat. no. 202-IL-010) of SEQ ID NO: 38 at 100 ng/well in carbonate coating buffer for 2 hours at 37° C. The plate was then blocked with 2% normal goat serum for 30 min at 37° C. and washed 4 times with PBS-Tween (0.05% Tween-20 in PBS, v/v). Test antibodies or positive control biotinylated antibody (anti-IL-2 Novus Bio cat. no. NBP1-43491) were added to the plate in duplicate at 5 μg/ml in PBS-Tween and the plate was incubated with gentle rocking at room temperature for 2 hours. The plate was then washed 4 times with PBS-Tween and an appropriate dilution of goat anti-human IgG antibody (Millipore cat. no. AP309P) conjugated to horseradish peroxidase (HRP) for test antibodies, or streptavidin-HRP for positive control antibody, was added to the plate and left rocking at room temperature for 1 hour. The plate was then washed 4 times with PBS-Tween and incubated with TMB (3,3′,5,5′-tetramethylbenzidine) substrate. The reaction was stopped by the addition of 1 M H₂SO₄ and read at 450 nm.

The target in assay [11] is T6, recombinant mouse IL-15 (R&D Systems cat. no. 447-ML) (mouse, UniProt P48346 49-162).
T6 sequence: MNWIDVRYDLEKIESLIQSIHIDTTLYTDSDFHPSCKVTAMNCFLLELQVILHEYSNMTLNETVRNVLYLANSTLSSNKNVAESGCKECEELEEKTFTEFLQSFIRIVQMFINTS
Nature of the assay: ELISA, plate-bound recombinant mouse IL-15 (100 ng/well), HRP goat anti-human IgG, absorbance at 450 nm. The method, then:
as §1, §2

T3 sequence (P40933 49-162 limits assumed): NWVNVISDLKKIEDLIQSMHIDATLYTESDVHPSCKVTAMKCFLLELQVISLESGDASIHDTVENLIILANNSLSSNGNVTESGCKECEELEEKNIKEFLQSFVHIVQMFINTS
T2 sequence (P40221 49-162): as the sequence (P40933 49-162 limits assumed) above, with L52H, A57T, S58D, S73I, V80I counted along it
T4 sequence (P40933 other isoform, or with tags, fused parts or gaps): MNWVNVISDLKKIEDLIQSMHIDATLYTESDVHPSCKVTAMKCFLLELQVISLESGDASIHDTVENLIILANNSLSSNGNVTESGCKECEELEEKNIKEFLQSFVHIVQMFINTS
T1 sequence (P40933 49-162 limits assumed): as the sequence (P40933 49-162 limits assumed) above
Sequence of recombinant human IL-2 (R&D Systems cat. no. 202-IL-010) (P60568 21-153 limits assumed): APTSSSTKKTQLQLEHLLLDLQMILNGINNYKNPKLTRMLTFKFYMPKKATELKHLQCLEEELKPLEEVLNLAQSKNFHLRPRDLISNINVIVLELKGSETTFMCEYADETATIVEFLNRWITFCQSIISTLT

B1: mouse anti-IL-15 monoclonal antibody B-E29 (antibody, V domains shown)
VH: EVRLMASGGGLVKPGGSLKLSCAASEFTFSNYAMSWVRQTPEKRLEWVATISRGGDYTYYPDSVKGRFTISRDNAKNTLYLQMSSLRSEDTALYYCARRVSMITGGWAMDYWGQGTSVTVSS
VL: DVLMTQTPLSLPVSLGDQASISCRSSQSIVDITGNTYLEWYLQKPGQSPKLLIYKVFNRFSGVPDRFSGSGSGTDFTLKISRVEAEDLGLYYCFQDSFVPYTFGGGTKLEIK
notes: Mouse IgG1 (heavy chain) kappa (light chain); also called mouse B-E29; comparative antibody 1
B1: the binding result in [1] was “binds”.

B2: huB-E29-2 (antibody, human IgG1, kappa)
heavy: not shown
light: DVVMTQSPLSLPVTLGQPASISCRSSQSIVDITGNTYLEWYQQRPGQSPRLLIYKVFNRFSGVPDRFSGSGSGTDFTLKISRVEAEDVGVYYCFQDSFVPYTFGQGTKLEIKRTVAAPSVFIFPPSDEQLKSGTASVVCLLNNFYPREAKVQWKVDNALQSGNSQESVTEQDSKDSTYSLSSTLTLSKADYEKHKVYACEVTHQGLSSPVTKSFNRGEC
notes: Humanized B-E29 variant; human IgG1 (G1m3) / kappa (Km3), produced in CHO cells; also called huVH2/huVL1
Regarding B2, the “half-maximal inhibitory concentration (IC50) of IL-15-induced prevention of apoptosis, type II RCD primary IEL cell line HAM RAC” value in [2] was found to be 2.36 nM. In addition, in assay [3], the “IC50 in Kit 225 cells (nM), Macaque Monkey IL-15” value amounted to 0.112 nM and the “IC50 in M-07e cells (nM), Macaque Monkey IL-15” value worked out at 0.23 nM. Moreover, in assay [4], the “IC50 in Kit 225 cells (nM), Human IL-15” value stood at 0.083 nM and the “IC50 in M-07e cells (nM), Human IL-15” value is 0.017 nM. In addition, the “IC50 in M07e cells for IL-15 trans presentation” value in [5] is 0.37 nM. In addition, the EC50 in assay [6] was found to be 1.47 nM. In [7], the concentration for a half-maximal effect (EC50) was found to be 0.34 nM. Besides, in [8], the Kd amounted to 0.0094 nM, the koff stood at 1.07e-05 s⁻¹ and the association rate constant (kon) stood at 1.15e+06 M⁻¹ s⁻¹. The binding result in assay [9] was “no binding (tested: log 3.7 (about 5000 ng/mL))”. Also, in assay [10], the binding result is on record as “no binding (tested: 5 µg/ml)”. For the same molecule, in [11], the binding result was “no binding (tested: log 3.7 (about 5000 ng/mL))”.
